Reference: patent US12295987B2, “Method of using a GIP/GLP1 co-agonist for diabetes” (Eli Lilly and Company, priority 2018, dated 2025)

Each substance was assayed against T1, human gastric inhibitory peptide receptor (hGIPR) (Homo sapiens, UniProt P48546) (assay: cAMP pharmacological functional assay in presence of 0.1% casein, hGIPR). Conditions: ratio of hGIPR to hGLP1R cAMP EC50 ratios.
T1 construct: expressed in transfected cells; host or cells: HEK293
T1 sequence (P48546 22-466): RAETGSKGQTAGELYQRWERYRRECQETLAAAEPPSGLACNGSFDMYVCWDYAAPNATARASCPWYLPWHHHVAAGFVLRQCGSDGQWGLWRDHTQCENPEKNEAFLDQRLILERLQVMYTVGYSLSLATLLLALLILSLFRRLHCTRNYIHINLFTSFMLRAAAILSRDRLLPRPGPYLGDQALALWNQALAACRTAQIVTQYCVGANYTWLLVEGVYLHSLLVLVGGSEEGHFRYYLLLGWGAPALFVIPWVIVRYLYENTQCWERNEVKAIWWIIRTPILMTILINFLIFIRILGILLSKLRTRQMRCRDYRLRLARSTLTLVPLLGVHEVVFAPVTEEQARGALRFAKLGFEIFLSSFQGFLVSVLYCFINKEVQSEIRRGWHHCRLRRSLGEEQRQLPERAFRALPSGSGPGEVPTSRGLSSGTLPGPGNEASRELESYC
Format: cell-based

Substance | [hGIPR/hGLP1R] EC50 Ratio
Y-Aib-EGT-αMeF(2F)-TSDYSI-αMeL-LDEK((2-[2-(2-Amino-ethoxy)-ethoxy]-acetyl)2-(γGlu)-CO—(CH2)14—CO2H)AQ-Aib-EFI-(D-Glu)-YLIEGGPSSGAPPPS-NH2 (YXEGTXTSDYSIXLDEKAQXEFIXYLIEGGPSSGAPPPS; Aib, αMeF(2F), αMeL, D-Glu; lipidated K; amide; (2)..(2) Xaa at position 2 is Aib; (6)..(6) Xaa at position 6 is alpha-methyl-Phe(2F); (13)..(13) Xaa at position 13 is alpha-methyl-Leu; MOD_RES (17)..(17) Lys at position 17 is chemically modified by conjugation of the epsilon-amino group of the Lys side chain with (2-[2-(2-amino-ethoxy)-ethoxy]-acetyl)2-(gamma-Glu)-CO-(CH2)14- CO2H; (20)..(20) Xaa at position 20 is Aib; (24)..(24) Xaa at positi) [Peptide 208] | 9.08
Y-Aib-EGT-αMeF(2F)-TSDYSI-αMeL-LDEK((2-[2-(2-Amino-ethoxy)-ethoxy]-acetyl)2-(γGlu)-CO—(CH2)16—CO2H)AQ-Aib-EFI-(D-Glu)-YLIEGG-NH2 (YXEGTXTSDYSIXLDEKAQXEFIXYLIEGG; Aib, αMe, D-Glu, C18 diacid lipidation, C-amide; (2)..(2) Xaa at position 2 is Aib; (6)..(6) Xaa at position 6 is alpha-methyl-Phe(2F); (13)..(13) Xaa at position 13 is alpha-methyl-Leu; MOD_RES (17)..(17) Lys at position 17 is chemically modified by conjugation of the epsilon-amino group of the Lys side chain with (2-[2-(2-amino-ethoxy)-ethoxy]-acetyl)2-(gamma-Glu)-CO-(CH2)16- CO2H; (20)..(20) Xaa at position 20 is Aib; (24)..(24) Xaa at positi) [Peptide 220] | 4.63
Y-Aib-EGT-αMeF(2F)-TSDYSI-αMeL-LDEK((2-[2-(2-Amino-ethoxy)-ethoxy]-acetyl)2-(γGlu)-CO—(CH2)16—CO2H)AQ-Aib-EFI-(D-Glu)-YLIEGGPSSG-NH2 (YXEGTXTSDYSIXLDEKAQXEFIXYLIEGGPSSG; Aib, αMe, D-Glu, C18 diacid lipidation, C-amide; (2)..(2) Xaa at position 2 is Aib; (6)..(6) Xaa at position 6 is alpha-methyl-Phe(2F); (13)..(13) Xaa at position 13 is alpha-methyl-Leu; MOD_RES (17)..(17) Lys at position 17 is chemically modified by conjugation of the epsilon-amino group of the Lys side chain with (2-[2-(2-amino-ethoxy)-ethoxy]-acetyl)2-(gamma-Glu)-CO-(CH2)16- CO2H; (20)..(20) Xaa at position 20 is Aib; (24)..(24) Xaa at positi) [Peptide 219] | 5.69
Y-Aib-EGT-αMeF(2F)-TSDYSI-αMeL-LDEK((2-[2-(2-Amino-ethoxy)-ethoxy]-acetyl)2-(γGlu)-CO—(CH2)16—CO2H)AQ-Aib-EFI-(D-Glu)-YLIEGGPSSGAPPPS-NH2 (YXEGTXTSDYSIXLDEKAQXEFIXYLIEGGPSSGAPPPS; Aib, αMeF(2F), αMeL, D-Glu; lipidated K; amide; (2)..(2) Xaa at position 2 is Aib; (6)..(6) Xaa at position 6 is alpha-methyl-Phe(2F); (13)..(13) Xaa at position 13 is alpha-methyl-Leu; MOD_RES (17)..(17) Lys at position 17 is chemically modified by conjugation of the epsilon-amino group of the Lys side chain with (2-[2-(2-amino-ethoxy)-ethoxy]-acetyl)2-(gamma-Glu)-CO-(CH2)16- CO2H; (20)..(20) Xaa at position 20 is Aib; (24)..(24) Xaa at positi) [Peptide 221] | 5.66
Y-Aib-EGT-αMeF(2F)-TSDYSI-αMeL-LDEK((2-[2-(2-Amino-ethoxy)-ethoxy]-acetyl)2-(γGlu)-CO—(CH2)16—CO2H)AQ-Aib-EFIEYLIEGG-NH2 (YXEGTXTSDYSIXLDEKAQXEFIEYLIEGG; Aib, αMe residues, C18 diacid lipidation, C-amide; (2)..(2) Xaa at position 2 is Aib; (6)..(6) Xaa at position 6 is alpha-methyl-Phe(2F); (13)..(13) Xaa at position 13 is alpha-methyl-Leu; MOD_RES (17)..(17) Lys at position 17 is chemically modified by conjugation of the epsilon-amino group of the Lys side chain with (2-[2-(2-amino-ethoxy)-ethoxy]-acetyl)2-(gamma-Glu)-CO-(CH2)16- CO2H; (20)..(20) Xaa at position 20 is Aib; MOD_RES (30)..(30) Gly a) [Peptide 104] | 2.66
Y-Aib-EGT-αMeF(2F)-TSDYSI-αMeL-LDEK((2-[2-(2-Amino-ethoxy)-ethoxy]-acetyl)2-(γGlu)-CO—(CH2)18—CO2H)AQ-Aib-EFI-(D-Glu)--αMeY-LIEGGPSSGAPPPS-NH2 (YXEGTXTSDYSIXLDEKAQXEFIXXLIEGGPSSGAPPPS; Aib, αMeF(2F), αMeL, D-Glu, αMeY; lipidated K; amide; (2)..(2) Xaa at position 2 is Aib; (6)..(6) Xaa at position 6 is alpha-methyl-Phe(2F); (13)..(13) Xaa at position 13 is alpha-methyl-Leu; MOD_RES (17)..(17) Lys at position 17 is chemically modified by conjugation of the epsilon-amino group of the Lys side chain with (2-[2-(2-amino-ethoxy)-ethoxy]-acetyl)2-(gamma-Glu)-CO-(CH2)18- CO2H; (20)..(20) Xaa at position 20 is Aib; (24)..(24) Xaa at positi) [Peptide 222] | 3.77
Y-Aib-EGT-αMeF(2F)-TSDYSI-αMeL-LDEK((2-[2-(2-Amino-ethoxy)-ethoxy]-acetyl)2-(γGlu)-CO—(CH2)18—CO2H)AQ-Aib-EFI-(D-Glu)-YLIEGGPSSGAPPPS-NH2 (YXEGTXTSDYSIXLDEKAQXEFIXYLIEGGPSSGAPPPS; Aib, alphaMe residues, C20 diacid lipidation, C-amide; (2)..(2) Xaa at position 2 is Aib; (6)..(6) Xaa at position 6 is alpha-MeF(2F); (13)..(13) Xaa at position 13 is alpha-MeL; MOD_RES (17)..(17) K at position 17 is chemically modified by conjugation of the epsilon-amino group of the K side chain with (2-[2-(2-amino-ethoxy)-ethoxy]-acetyl)2-(gamma-Glu)-CO-(CH2)18- CO2H; (20)..(20) Xaa at position 20 is Aib; (24)..(24) Xaa at position 24 is D-Glu; MO) [Peptide 1] | 4.15
Y-Aib-EGT-αMeF(2F)-TSDYSI-αMeL-LDEK((2-[2-(2-Amino-ethoxy)-ethoxy]-acetyl)2-(γGlu)-CO—(CH2)18—CO2H)AQ-Aib-EFI-Aad-YLIEGGPSSGAPPPS-NH2 (YXEGTXTSDYSIXLDEKAQXEFIXYLIEGGPSSGAPPPS; Aib, Aad, αMeF(2F), αMeL; acylated lysine C20 diacid; amide; (2)..(2) Xaa at position 2 is Aib; (6)..(6) Xaa at position 6 is alpha-methyl-Phe(2F); (13)..(13) Xaa at position 13 is alpha-methyl-Leu; MOD_RES (17)..(17) Lys at position 17 is chemically modified by conjugation of the epsilon-amino group of the Lys side chain with (2-[2-(2-amino-ethoxy)-ethoxy]-acetyl)2-(gamma-Glu)-CO-(CH2)18- CO2H; (20)..(20) Xaa at position 20 is Aib; (24)..(24) Xaa at positi) [Peptide 147] | 3.66
Y-Aib-EGT-αMeF(2F)-TSDYSI-αMeL-LDEK((2-[2-(2-Amino-ethoxy)-ethoxy]-acetyl)2-(γGlu)-CO—(CH2)18—CO2H)AQ-Aib-EFI-Aib-YLIEGGPSSGAPPPS-NH2 (YXEGTXTSDYSIXLDEKAQXEFIXYLIEGGPSSGAPPPS; Aib, αMeF(2F), αMeL; acylated lysine C20 diacid; amide; (2)..(2) Xaa at position 2 is Aib; (6)..(6) Xaa at position 6 is alpha-methyl-Phe(2F); (13)..(13) Xaa at position 13 is alpha-methyl-Leu; MOD_RES (17)..(17) Lys at position 17 is chemically modified by conjugation of the epsilon-amino group of the Lys side chain with (2-[2-(2-amino-ethoxy)-ethoxy]-acetyl)2-(gamma-Glu)-CO-(CH2)18- CO2H; (20)..(20) Xaa at position 20 is Aib; (24)..(24) Xaa at positi) [Peptide 152] | 5.31
